Measurements reported in article PMC9474520, “Biochemical and structural insights of multifunctional flavin-dependent monooxygenase FlsO1-catalyzed unexpected xanthone formation” (Nature Communications, 2022).

B1: FlsO1 (Micromonospora rosaria) (protein)
chain: MNTIDAEVIIVGAGPTGLMLAGELRLNNVSTIVLDRLAEPMQQSRALGFSARTIEEFDQRGLLARFGEVGTIPFGHFGGVPLDYRVIKGGSYGARGIPQSRTEGMLAQRAVELGAELRRGQEVVSIDDDGTGVAVVVRTADGEQTLRAKYLVGADGARSTVRKAAGIDFPGTDPTMEMWLADVAGCDLRLRFSGELVPGGMVMVLPLGPVAQRVVVFEHATGLRNSTEPPTFAEVADAFERLTGEDIRGGKPLWVSWFTDSSRQAAEYRRGRILLAGDAAHIHMPIGGQGMSAGIQDAVNLGWKLAAEIHGHAPEGLLDTYHTERHPVDGRVVMNTLAQRWLYLGGEAMQPLRELLGELVRYPDVQEHLVGMVTGLDIRYDVGAGEHPLLGRRIPNQELVGEFDGSGKSTTFEQLHRGRGVLFAFGDDTAGPQAATGWTDRVDVVRATPHTADPDDPFHGLDAVLVRPDGYVAWVAPAGAGAAGLDEALSRWFGPSR
notes: (His)6-tagged, pET28a (pCSG5205), E. coli BL21(DE3); Ni-NTA; homodimer; crystals from Q108G/R109G surface mutant
B2: FlsO2 (Micromonospora rosaria) (protein)
chain: MDTDVIVVGAGPTGLMLAGELRLGGARVVLVERLAEPTGQSRGLGFTARAMETLDQRGLLPRFGELETSPRGHFGGVQFDYSVLPDAHFGARGVPQSQTEDVLEKWATETGVDIRRGWELRELTDDGSGVTIVADTPDGTRQLRAAYLVGCDGGQSTVRKLVGFEFEGTPATRGMYLADVVGCALRPRFLGEKLANGMVMAAPLAEGVDRIIVCEHGTPPTERERQVSFEEVAAAWERITGESISHGGSLWVSSFTDATRQATEYRRGRVLLAGDAAHIHLPAAGQGLSVGVQDAANLGWKLAAVVRGHAPEGLLDTYHDERHPVGARLLLNTRVQNAVFLGGEEAEPLRTLFTELISYDTVGRHLAGMVSGLEVRYDVGAGDHPLLGRRLPPRALHGAAGATTTTELLHPATGVLLDLTDDAGLRAVAAGYGDRVAVTVATSDAAEFAGVPALLVRPDGYVAWVGAEPDGLAAALRRWFGEPAPAGQ
notes: expressed from pCSG5102 (previously constructed), E. coli BL21(DE3); purified similarly to FlsO1

Substrate: CC1=CC(=O)[C@@H]2c3cc4cccc(O)c4c(O)c3C(=O)C[C@]2(O)C1
Experiment: HPLC of dehydrorabelomycin formation
Format: biochemical, Micromonospora rosaria
Details: 2 mM NADPH, 50 mM phosphate pH 7.0, 30 °C

Row | Protein | Km (0.5 μM enzyme) [µM] | Km (0.25 μM enzyme) [µM]
1 | B1 | 253.4 | –
2 | B2 | – | 143.2
